In publication PMC6628623, “Effects of Destruxin A on Silkworm’s Immunophilins” (Toxins, 2019):
Where a SMILES comes first, the peptide text is derived from it. [ ]: non-standard residue; d: D form. dLac(3-vinyl) = C=CC[C@@H](O)C(=O)O; NMeV = CN[C@H](C(=O)O)C(C)C; NMeA = CN[C@@H](C)C(=O)O; βAla = NCCC(=O)O

Legend:
[1] = molecular target: Bmo.3174 (predicted B. mori cell division cycle 5-like protein, BmCDC5), DNA-binding-domain fusion (Bombyx mori (silkworm)); test: two-hybrid; insect two-hybrid (I2H) in Spodoptera frugiperda Sf-9 cells co-transfected with AD, DBD and PIE-Luc vectors; luciferase read-out (lumen value) against untransfected Sf-9 cells (CK, 40); 27 °C
BmPPI = molecular target: T1, BmPPI (Bombyx mori, UniProt Q1HQ20); test: bio-layer interferometry, His-tagged protein on Ni-NTA biosensor; assay type: binding
T1 construct: cyclophilin superfamily
T1 sequence (Q1HQ20 1-171): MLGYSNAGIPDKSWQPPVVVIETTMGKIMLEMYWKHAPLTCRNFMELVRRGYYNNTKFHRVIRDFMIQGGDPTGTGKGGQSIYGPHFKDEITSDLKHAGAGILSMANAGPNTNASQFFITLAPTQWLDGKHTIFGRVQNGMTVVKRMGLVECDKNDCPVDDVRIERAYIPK
Text: bio-layer interferometry, His-tagged protein on Ni-NTA biosensor on BmPPI

peptidyl-prolyl cis-trans isomerase (BmPPI), activation-domain fusion (natural protein)
lumen value (luciferase, I2H) [1]: 580

C=CC[C@H]1OC(=O)CCNC(=O)[C@H](C)N(C)C(=O)[C@H](C(C)C)N(C)C(=O)[C@H]([C@@H](C)CC)NC(=O)[C@@H]2CCCN2C1=O [DA, Destruxin A] (cyclo(I[NMeV][NMeA][βAla][dLac(3-vinyl)]P))
Kd (BmPPI): 1980 µM
